Measured values reported in patent US20220259593A1, “CONTROL OF MAMMALIAN GENE DOSAGE USING CRISPR” (The Regents of the University of California, priority 2019, published 2022).
Numbering of substitutions follows the chain as printed.

Test system: K562 CRISPRi cells
Assay: Constant region variant library pooled growth screen, K562
Format: cell-based, human
Procedure, shortened: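 Library of sgRNA constant-region variants, each paired with 36 targeting sequences (essential-gene and non-targeting), transduced in duplicate into K562 CRISPRi cells, puromycin-selected and grown 4–8 days at >2000× coverage. Activity per variant is its growth phenotype normalised to the same targeting sequence with unmodified constant region.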

[1] = sgRNA constant region variant, activity relative to unmodified constant region cr995, mean CRISPRi activity
[2] = sgRNA constant region variants, activity relative to the original, un-modified constant region cr995

B1: cr247 (nucleic acid)
guide: GTTTAAGAGCTAAGCTGGAAACAGCATAGCAATTTTAAATAAGGCTAGTCCGTTATCAACTTGAAAAAGTAGCACCGAGTCGGTGCT
modifications: listed as DNA, chemistry not fully specified
Work on B1 yielded a Mean relative activity [1] of 0.007159.

B2: cr883 (nucleic acid)
guide: B1 guide with T33G, A42G, C51G, A71G
modifications: listed as DNA, chemistry not fully specified
B2 showed a Mean relative activity [1] of 0.006975.

B3: cr376 (nucleic acid)
guide: B1 guide with T33C, A71G, C76G, G82C
modifications: listed as DNA, chemistry not fully specified
B3 showed a Mean relative activity [1] of 0.006963.

B4: cr518 (nucleic acid)
guide: B1 guide with A41G, A71G
modifications: listed as DNA, chemistry not fully specified
For B4, the Mean relative activity [1] was 0.006889.

B5: cr092 (nucleic acid)
guide: B1 guide with T3G, A6G, T33G, A71G
modifications: listed as DNA, chemistry not fully specified
In the case of B5, the Mean relative activity [1] is reported as 0.006875.

B6: cr352 (nucleic acid)
guide: B1 guide with T33G, A59C, A71G
modifications: listed as DNA, chemistry not fully specified
B6 showed a Mean relative activity [2] of 1.031.

B7: cr281 (nucleic acid)
guide: B1 guide with T33G, A71G, A74T, C75G, C76G, G77C, G82C, T84A
modifications: listed as DNA, chemistry not fully specified
Molecule B7 has a Mean relative activity [1] of 0.006802.

B8: cr463 (nucleic acid)
guide: B1 guide with T33G, G43C, C51G, A59C, T70G, A71G, G77T, C81A
modifications: listed as DNA, chemistry not fully specified
With B8 the Mean relative activity [1] was 0.006799.

B9: cr174 (nucleic acid)
guide: B1 guide with G29C, T33G, T49G, A71G, G79T
modifications: listed as DNA, chemistry not fully specified
In the case of B9, the Mean relative activity [1] is reported as 0.006669.

B10: cr706 (nucleic acid)
guide: B1 guide with T33G, T34G, A71G, C76G, G82C
modifications: listed as DNA, chemistry not fully specified
With B10 the Mean relative activity [1] was 0.006595.

B11: cr967 (nucleic acid)
guide: B1 guide with T33G, G43C, C51G, A71G, C73A, G77A, C81T, G85T
modifications: listed as DNA, chemistry not fully specified
Work on B11 yielded a Mean relative activity [1] of 0.006446.

B12: cr902 (nucleic acid)
guide: B1 guide with T33G, A71G, G72A, C86T
modifications: listed as DNA, chemistry not fully specified
B12 showed a Mean relative activity [2] of 1.031.

B13: cr272 (nucleic acid)
guide: B1 guide with A31C, T33C, A71G
modifications: listed as DNA, chemistry not fully specified
Work on B13 yielded a Mean relative activity [1] of 0.00638.

B14: cr744 (nucleic acid)
guide: B1 guide with T33G, T34A, A41C, A64T, A71G
modifications: listed as DNA, chemistry not fully specified
For B14, the Mean relative activity [1] was 0.006349.

B15: cr615 (nucleic acid)
guide: B1 guide with T33G, A71G, G72C, C73G, A74T, C75G, T84A, C86G
modifications: listed as DNA, chemistry not fully specified
For B15, the Mean relative activity [1] was 0.006333.

B16: cr100 (nucleic acid)
guide: B1 guide with T33G, A41G, T49C, A71G
modifications: listed as DNA, chemistry not fully specified
B16 showed a Mean relative activity [1] of 0.005923.

B17: cr584 (nucleic acid)
guide: B1 guide with T33G, A42T, G52T, A71G
modifications: listed as DNA, chemistry not fully specified
In the case of B17, the Mean relative activity [1] is reported as 0.005912.

B18: cr057 (nucleic acid)
guide: B1 guide with T2C, T4C, T33G, A71G
modifications: listed as DNA, chemistry not fully specified
B18 was tested, and the Mean relative activity [2] was 0.005757.

B19: cr266 (nucleic acid)
guide: B1 guide with A28G, T33G, T34G, T46G, A71G
modifications: listed as DNA, chemistry not fully specified
With B19 the Mean relative activity [2] was 0.005552.

B20: cr537 (nucleic acid)
guide: B1 guide with T33G, T34C, A41T, A71G
modifications: listed as DNA, chemistry not fully specified
Molecule B20 has a Mean relative activity [2] of 0.005276.

B21: cr109 (nucleic acid)
guide: B1 guide with T33G, T61A, T62A, A67T, A68T, A71G
modifications: listed as DNA, chemistry not fully specified
B21 was tested, and the Mean relative activity [2] was 1.031.

B22: cr060 (nucleic acid)
guide: B1 guide with T3G, T4C, T33G, A71G
modifications: listed as DNA, chemistry not fully specified
B22 was tested, and the Mean relative activity [2] was 0.005182.

B23: cr309 (nucleic acid)
guide: B1 guide with T33G, T34G, T49G, A71G
modifications: listed as DNA, chemistry not fully specified
B23 gave a Mean relative activity [2] of 0.005045.

B24: cr472 (nucleic acid)
guide: B1 guide with T33G, T34G, C45T, G48A, A71G
modifications: listed as DNA, chemistry not fully specified
B24 gave a Mean relative activity [2] of 0.004917.

B25: cr297 (nucleic acid)
guide: B1 guide with T33G, T49G, A71C
modifications: listed as DNA, chemistry not fully specified
For B25, the Mean relative activity [2] was 0.004872.

B26: cr849 (nucleic acid)
guide: B1 guide with T33C, T34G, A71G
modifications: listed as DNA, chemistry not fully specified
In the case of B26, the Mean relative activity [2] is reported as 0.004706.

B27: cr845 (nucleic acid)
guide: B1 guide with T33G, T34G, G43A, C51T, A71G
modifications: listed as DNA, chemistry not fully specified
B27 was tested, and the Mean relative activity [2] was 0.004644.

B28: cr400 (nucleic acid)
guide: B1 guide with T33G, T34G, C45A, G48T, A71G
modifications: listed as DNA, chemistry not fully specified
Molecule B28 has a Mean relative activity [2] of 0.00451.

B29: cr094 (nucleic acid)
guide: B1 guide with T2A, A5T, T33G, A71G
modifications: listed as DNA, chemistry not fully specified
Molecule B29 has a Mean relative activity [2] of 0.004414.

B30: cr203 (nucleic acid)
guide: B1 guide with T33C, G52T, A71G
modifications: listed as DNA, chemistry not fully specified
B30 showed a Mean relative activity [2] of 0.004333.

B31: cr753 (nucleic acid)
guide: B1 guide with T33G, G43C, C51G, A59T, T70A, A71G, C73A, G85T
modifications: listed as DNA, chemistry not fully specified
Work on B31 yielded a Mean relative activity [2] of 0.004302.

B32: cr857 (nucleic acid)
guide: B1 guide with T33G, A41T, A71C, T80C
modifications: listed as DNA, chemistry not fully specified
B32 was tested, and the Mean relative activity [2] was 0.004274.

B33: cr833 (nucleic acid)
guide: B1 guide with A28C, T33C, A71C
modifications: listed as DNA, chemistry not fully specified
Work on B33 yielded a Mean relative activity [2] of 0.004215.

B34: cr660 (nucleic acid)
guide: B1 guide with T33G, G43T, A71G
modifications: listed as DNA, chemistry not fully specified
Work on B34 yielded a Mean relative activity [2] of 0.004102.

B35: cr536 (nucleic acid)
guide: B1 guide with T33C, C45A, G48T, A71G
modifications: listed as DNA, chemistry not fully specified
For B35, the Mean relative activity [2] was 0.003951.

B36: cr070 (nucleic acid)
guide: B1 guide with G7C, A8G, T33G, A71G
modifications: listed as DNA, chemistry not fully specified
B36 was tested, and the Mean relative activity [2] was 1.03.

B37: cr245 (nucleic acid)
guide: B1 guide with T33G, T34G, G44A, C50T, A71G
modifications: listed as DNA, chemistry not fully specified
Molecule B37 has a Mean relative activity [2] of 0.00372.

B38: cr303 (nucleic acid)
guide: B1 guide with T33C, A47T, A71T
modifications: listed as DNA, chemistry not fully specified
Molecule B38 has a Mean relative activity [2] of 0.003573.

B39: cr981 (nucleic acid)
guide: B1 guide with T33G, G43C, C51G, T62G, A67C, A71G
modifications: listed as DNA, chemistry not fully specified
Molecule B39 has a Mean relative activity [2] of 0.003266.

B40: cr469 (nucleic acid)
guide: B1 guide with T33G, G52C, A71G
modifications: listed as DNA, chemistry not fully specified
With B40 the Mean relative activity [2] was 0.003211.
